According to IntAct's records for PubMed 31515488:

B1: DNA replication complex GINS protein PSF2 (Homo sapiens), Q9Y248 (parent)
chain: MDAAEVEFLAEKELVTIIPNFSLDKIYLIGGDLGPFNPGLPVEVPLWLAINLKQRQKCRLLPPEWMDVEKLEKMRDHERKEETFTPMPSPYYMELTKLLLNHASDNIPKADEIRTLVKDMWDTRIAKLRVSADSFVRQQEAHAKLDNLTLMEINTSGTFLTQALNHMYKLRTNLQPLESTQSQDF
B2: Uncharacterized protein C3orf62 (Homo sapiens), Q6ZUJ4 (parent)
chain: MHYIKTWSLLGEMSEKLRRCRKELTAAIDRAFEGVSYSQECTGQQRLELSAAPLSFSLPVHRLLCRRHPLAACSSAAPFAAVPCAPENENPAFATNHAPVNAKPHALCPERKPLTSKENVLMHSSILAPERESWRTAGEGENWRKENLRKDMERDLKADSNMPLNNSSQEVTKDLLDMIDHTSIRTIEELAGKIEFENELNHMCGHCQDSPFKEEAWALLMDKSPQKATDADPGSLKQAFDDHNIVETVLDLEEDYNVMTSFKYQIE
partner: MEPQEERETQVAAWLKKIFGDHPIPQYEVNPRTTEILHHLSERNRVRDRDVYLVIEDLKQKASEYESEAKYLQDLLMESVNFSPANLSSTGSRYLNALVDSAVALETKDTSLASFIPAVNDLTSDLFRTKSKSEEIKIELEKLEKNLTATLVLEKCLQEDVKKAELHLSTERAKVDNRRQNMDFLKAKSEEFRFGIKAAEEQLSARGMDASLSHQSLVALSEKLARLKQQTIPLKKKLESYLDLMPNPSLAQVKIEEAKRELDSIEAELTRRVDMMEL
B3: Ribonuclease P protein subunit p25-like protein (Homo sapiens), Q8N5L8 (parent)
chain: MEHYRKAGSVELPAPSPMPQLPPDTLEMRVRDGSKIRNLLGLALGRLEGGSARHVVFSGSGRAAGKAVSCAEIVKRRVPGLHQLTKLRFLQTEDSWVPASPDTGLDPLTVRRHVPAVWVLLSRDPLDPNECGYQPPGAPPGLGSMPSSSCGPRSRRRARDTRS
partner: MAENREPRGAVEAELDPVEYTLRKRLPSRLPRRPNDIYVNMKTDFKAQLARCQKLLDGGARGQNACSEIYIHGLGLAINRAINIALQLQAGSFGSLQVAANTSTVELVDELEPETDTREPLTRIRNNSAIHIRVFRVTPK
B4: Cytochrome b-245 chaperone 1 (Homo sapiens), Q9BQA9 (parent)
chain: MYLQVETRTSSRLHLKRAPGIRSWSLLVGILSIGLAAAYYSGDSLGWKLFYVTGCLFVAVQNLEDWEEAIFDKSTGKVVLKTFSLYKKLLTLFRAGHDQVVVLLHDVRDVSVEEEKVRYFGKGYMVVLRLATGFSHPLTQSAVMGHRSDVEAIAKLITSFLELHCLESPTELSQSSDSEAGDPASQS
B5: U3 small nucleolar RNA-associated protein 14 homolog C (Homo sapiens), Q5TAP6 (parent)
chain: MNVNQVAENLALSHQEELVDLPKNYPLSENEDEGDSDGERKHQKLLEAIISLDGKNRRKLAERSEASLKVSEFSVSSEGSGEKLGLADLLEPVKTSSSLATVKKQLNRVKSKKVVELPLNKEKIEQIHREVAFSKTSQVLSKWDPIILKNQQAEQLVFPLGKEQPAIAPIEHALSGWKARTPLEQEIFNLLHKNKQPVTDPLLTPMEKASLQAMSLEEAKMHRAELQRARALQSYYEAKARKEKKIKSKKYHKVVKKGKAKKALKEFEQLQKVNPTVALEEMEKIENARMMERMSLKHQNSGKWAKSKAIMAKYDLEARQAMQEQLAKNKELTQKLQVASESEEEEGGTEVEELLVPHVANEVQMNVDGPNPWMFRSCTSDTKEAATQEDPEQVPELAAHEVSASEAEERPVAEEEILLREFEERQSLRKRSELNQDAEPASSQETKDSSSQEVLSELRALSQKLKEKHQSRKQKASSEGTVPQVQREEPAPEEAEPLLLQRSERVQTLEELEELGKEDCFQNKELPRPVLEGQQSERTPNNRPDAPKEKKEKEQLINLQNFLTTQSPSVRSLAVPTIIEELEDEEERDQRQMIKEAFAGDDVIRDFLKEKREAVEASKPKDVDLTLPGWGEWGGVGLKPSAKKRRQFLIKAPEGPPRKDKNLPNVIISEKRNIHAAAHQVQVLPYPFTHHRQFERTIQTPIGSTWNTQRAFQKLTTPKVVTKPGHIIKPIKAEDVGYQSSSRSDLPVIQRNPKRITTRHNKEEKL
partner: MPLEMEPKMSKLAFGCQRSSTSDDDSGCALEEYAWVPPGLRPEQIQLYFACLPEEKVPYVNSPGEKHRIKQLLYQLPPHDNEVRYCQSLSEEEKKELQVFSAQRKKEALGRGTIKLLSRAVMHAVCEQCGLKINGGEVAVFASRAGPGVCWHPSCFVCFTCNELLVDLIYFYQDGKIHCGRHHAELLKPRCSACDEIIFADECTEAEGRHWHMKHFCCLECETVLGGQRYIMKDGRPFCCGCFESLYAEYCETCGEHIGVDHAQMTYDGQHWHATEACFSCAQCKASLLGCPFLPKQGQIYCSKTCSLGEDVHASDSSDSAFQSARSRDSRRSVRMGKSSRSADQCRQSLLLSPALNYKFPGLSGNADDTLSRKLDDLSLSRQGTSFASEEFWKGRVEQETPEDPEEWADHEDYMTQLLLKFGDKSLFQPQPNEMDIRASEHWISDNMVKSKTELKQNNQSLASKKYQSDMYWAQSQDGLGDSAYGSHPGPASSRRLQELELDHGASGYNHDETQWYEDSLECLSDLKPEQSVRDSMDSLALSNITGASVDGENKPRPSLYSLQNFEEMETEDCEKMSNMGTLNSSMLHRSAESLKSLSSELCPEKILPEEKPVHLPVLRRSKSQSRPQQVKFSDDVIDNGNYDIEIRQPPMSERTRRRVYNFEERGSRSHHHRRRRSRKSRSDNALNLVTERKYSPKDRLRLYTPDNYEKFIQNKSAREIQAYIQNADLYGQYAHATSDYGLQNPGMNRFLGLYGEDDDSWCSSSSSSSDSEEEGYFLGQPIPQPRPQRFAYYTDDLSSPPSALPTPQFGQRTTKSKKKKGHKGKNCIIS
B6: 14-3-3 protein theta (Homo sapiens), P27348 (parent)
chain: MEKTELIQKAKLAEQAERYDDMATCMKAVTEQGAELSNEERNLLSVAYKNVVGGRRSAWRVISSIEQKTDTSDKKLQLIKDYREKVESELRSICTTVLELLDKYLIANATNPESKVFYLKMKGDYFRYLAEVACGDDRKQTIDNSQGAYQEAFDISKKEMQPTHPIRLGLALNFSVFYYEILNNPELACTLAKTAFDEAIAELDTLNEDSYKDSTLIMQLLRDNLTLWTSDSAGEECDAAEGAEN

Variants of: B1
Settings: with sld5_human GINS4, Q9BRT9
sld5_human GINS4, Q9BRT9, sequence (Q9BRT9 whole entry): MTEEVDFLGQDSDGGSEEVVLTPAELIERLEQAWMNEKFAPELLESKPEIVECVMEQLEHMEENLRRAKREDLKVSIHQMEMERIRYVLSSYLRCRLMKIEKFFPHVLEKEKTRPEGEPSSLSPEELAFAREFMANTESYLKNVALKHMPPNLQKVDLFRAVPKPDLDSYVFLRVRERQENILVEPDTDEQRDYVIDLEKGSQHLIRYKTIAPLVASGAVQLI

effect of a mutation on the interaction | Variant
with no effect | T172K

Variants of: B2
Settings: with haus1_human HAUS1, Q96CS2

effect of a mutation on the interaction | Variant
with no effect | R66G

Variants of: B3
Settings: with pop7_human POP7, O75817

effect of a mutation on the interaction | Variant
with no effect | D127N

Variants of: B4
Settings: with BCL2L13, Q9BXK5
BCL2L13, Q9BXK5, sequence (Q9BXK5 whole entry): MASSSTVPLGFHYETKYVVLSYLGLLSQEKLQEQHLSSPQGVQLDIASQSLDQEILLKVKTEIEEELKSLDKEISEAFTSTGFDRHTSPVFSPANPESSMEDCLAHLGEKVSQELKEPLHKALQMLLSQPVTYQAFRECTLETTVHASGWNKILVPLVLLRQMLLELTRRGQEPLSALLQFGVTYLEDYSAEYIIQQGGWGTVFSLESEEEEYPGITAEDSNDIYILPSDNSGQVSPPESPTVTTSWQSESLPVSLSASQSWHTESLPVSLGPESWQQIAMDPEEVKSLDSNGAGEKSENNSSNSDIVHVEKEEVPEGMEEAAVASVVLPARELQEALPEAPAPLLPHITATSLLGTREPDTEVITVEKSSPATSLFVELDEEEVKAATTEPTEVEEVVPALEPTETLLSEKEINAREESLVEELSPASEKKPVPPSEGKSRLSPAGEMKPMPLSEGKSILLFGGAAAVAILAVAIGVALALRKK

effect of a mutation on the interaction | Variant
with no effect | R129W

Variants of: B5
Settings: with pric1_human PRICKLE1, Q96MT3

Variant | effect of a mutation on the interaction
I170V | with no effect
R672H | with no effect
V109D | with no effect

The remaining lines, values ahead:

effect of a mutation on the interaction | Variant
disrupting interaction strength | T101A
with no effect | A652T
with no effect | K247E

Variants of: B6
Settings: with tri42_human TRIM42, Q8IWZ5
tri42_human TRIM42, Q8IWZ5, sequence (Q8IWZ5 whole entry): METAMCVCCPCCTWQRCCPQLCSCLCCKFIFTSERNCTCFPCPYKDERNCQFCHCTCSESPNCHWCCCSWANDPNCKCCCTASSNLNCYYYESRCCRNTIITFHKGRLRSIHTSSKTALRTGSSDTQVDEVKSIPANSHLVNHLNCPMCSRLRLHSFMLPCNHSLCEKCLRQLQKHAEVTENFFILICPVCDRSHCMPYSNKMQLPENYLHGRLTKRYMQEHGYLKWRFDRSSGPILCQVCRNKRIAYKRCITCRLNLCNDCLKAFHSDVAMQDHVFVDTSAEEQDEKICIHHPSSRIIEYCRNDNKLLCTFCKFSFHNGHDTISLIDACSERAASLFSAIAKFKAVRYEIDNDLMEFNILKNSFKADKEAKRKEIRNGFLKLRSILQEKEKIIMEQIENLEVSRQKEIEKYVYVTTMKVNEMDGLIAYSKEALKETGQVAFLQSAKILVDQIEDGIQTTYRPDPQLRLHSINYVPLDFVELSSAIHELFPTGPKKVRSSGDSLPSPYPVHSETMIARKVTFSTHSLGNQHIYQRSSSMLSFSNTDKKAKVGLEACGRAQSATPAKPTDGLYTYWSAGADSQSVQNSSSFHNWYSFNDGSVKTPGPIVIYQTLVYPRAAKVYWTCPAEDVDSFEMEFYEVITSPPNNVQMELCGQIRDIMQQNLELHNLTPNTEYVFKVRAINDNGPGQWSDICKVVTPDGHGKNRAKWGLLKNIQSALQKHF

effect of a mutation on the interaction | Variant
with no effect | A152S
